This test concerns the target T1, human fibrinogen (human, UniProt P02671-2 20-644; P02675 31-491; P02679-2 27-437).
T1 sequence (looked up) 1: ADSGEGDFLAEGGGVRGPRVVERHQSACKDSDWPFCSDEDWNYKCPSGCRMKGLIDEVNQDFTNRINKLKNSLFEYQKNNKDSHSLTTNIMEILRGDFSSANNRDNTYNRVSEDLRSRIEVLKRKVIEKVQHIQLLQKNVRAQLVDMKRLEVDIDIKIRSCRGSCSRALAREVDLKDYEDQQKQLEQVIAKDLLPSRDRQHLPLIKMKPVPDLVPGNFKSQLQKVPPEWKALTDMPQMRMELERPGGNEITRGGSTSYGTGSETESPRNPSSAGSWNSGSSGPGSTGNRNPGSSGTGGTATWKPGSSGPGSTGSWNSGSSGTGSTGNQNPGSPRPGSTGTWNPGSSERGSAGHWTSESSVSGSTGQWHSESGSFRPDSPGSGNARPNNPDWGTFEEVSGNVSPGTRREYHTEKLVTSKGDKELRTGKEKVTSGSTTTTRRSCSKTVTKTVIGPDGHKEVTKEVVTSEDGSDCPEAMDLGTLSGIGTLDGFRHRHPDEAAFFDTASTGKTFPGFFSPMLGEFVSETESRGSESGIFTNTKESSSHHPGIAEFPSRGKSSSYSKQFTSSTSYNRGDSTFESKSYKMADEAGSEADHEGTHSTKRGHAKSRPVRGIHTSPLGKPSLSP
T1 sequence (looked up) 2: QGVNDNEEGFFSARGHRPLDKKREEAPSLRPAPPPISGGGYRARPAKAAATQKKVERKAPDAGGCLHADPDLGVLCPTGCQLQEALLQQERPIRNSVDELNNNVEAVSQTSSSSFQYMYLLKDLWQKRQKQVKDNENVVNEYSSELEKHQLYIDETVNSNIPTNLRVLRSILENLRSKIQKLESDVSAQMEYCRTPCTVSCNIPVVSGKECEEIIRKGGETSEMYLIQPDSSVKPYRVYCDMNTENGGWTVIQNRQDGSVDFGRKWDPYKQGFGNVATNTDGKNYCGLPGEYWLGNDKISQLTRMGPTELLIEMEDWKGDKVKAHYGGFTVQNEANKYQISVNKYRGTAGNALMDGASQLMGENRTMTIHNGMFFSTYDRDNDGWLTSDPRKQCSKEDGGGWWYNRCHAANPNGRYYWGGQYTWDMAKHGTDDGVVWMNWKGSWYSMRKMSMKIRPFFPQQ
T1 sequence (looked up) 3: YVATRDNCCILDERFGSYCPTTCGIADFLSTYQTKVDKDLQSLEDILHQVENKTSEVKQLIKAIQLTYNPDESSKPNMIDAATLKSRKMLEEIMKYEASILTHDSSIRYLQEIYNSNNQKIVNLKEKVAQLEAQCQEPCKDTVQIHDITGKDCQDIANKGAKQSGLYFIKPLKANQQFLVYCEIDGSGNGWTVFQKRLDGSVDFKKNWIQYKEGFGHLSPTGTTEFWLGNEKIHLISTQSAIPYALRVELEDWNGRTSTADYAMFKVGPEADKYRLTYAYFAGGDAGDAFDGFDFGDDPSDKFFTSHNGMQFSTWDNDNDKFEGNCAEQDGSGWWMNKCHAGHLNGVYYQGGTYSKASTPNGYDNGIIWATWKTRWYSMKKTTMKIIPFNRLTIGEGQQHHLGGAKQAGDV
Kind of test: SPR.

B1: recombinant von Willebrand factor (VWF) A2 domain polypeptide, A2_(1481-1668) (domain or fragment)
chain: GLLGVSTLGPKRNSMVLDVAFVLEGSDKIGEADFNRSKEFMEEVIQRMDVGQDSIHVTVLQYSYMVTVEYPFSEAQSKGDILQRVREIRYQGGNRTNTGLALRYLSDHSFLVSQGDREQAPNLVYMVTGNPASDEIKRLPGDIQVVPIGVGPNANVQELERIGWPNAPILIQDFETLPREAPDLVLQR
Turning to B1, the dissociation constant (Kd) (usually the free concentration of one partner at which half of the binding sites on the other are occupied at equilibrium, for simple one-to-one binding) amounted to 125 ± 30 nM.

The values above are taken from paper PMC5270629 (Thrombosis research, 2015).
